Results reported in article doi:10.1101/2023.01.10.523378.
Where “and” joins values, the source holds several entries; their conditions need not be identical. Identical values can stand only once.

Experiments:
[1] = molecular target: rat CaMKIIα holoenzyme (apo, nonphosphorylated) (rat) (UniProt P11275); experiment: high-speed atomic force microscopy
[2] = molecular target: rat CaMKIIα holoenzyme phosphorylated at Thr286 (rat) (UniProt P11275); experiment: high-speed atomic force microscopy

fraction of Ca2+/CaM bound longer than 60 s [1] [%]	fraction of Ca2+/CaM bound longer than 60 s [2] [%]	stoichiometry N [1]	Substance
41.1	77.3	–	Ca2+/calmodulin (from UniProt P0DP23 1-149) (natural protein)
–	–	12 and 14	rat CaMKIIα holoenzyme (apo, nonphosphorylated) (from UniProt P11275 1-478)
